Patent publication US20220324969A1 (MYTHIC THERAPEUTICS, published 2022)

These binders were tested against CD33 (Sino Biological, Cat #12238-H08H) (UniProt P20138 18-259) (assay: BLI, IgG captured on anti-human Fc sensor, 50 nM CD33, pH 7.4 vs pH 5.4).
Chain of CD33 (Sino Biological, Cat #12238-H08H) (P20138 18-259 limits assumed): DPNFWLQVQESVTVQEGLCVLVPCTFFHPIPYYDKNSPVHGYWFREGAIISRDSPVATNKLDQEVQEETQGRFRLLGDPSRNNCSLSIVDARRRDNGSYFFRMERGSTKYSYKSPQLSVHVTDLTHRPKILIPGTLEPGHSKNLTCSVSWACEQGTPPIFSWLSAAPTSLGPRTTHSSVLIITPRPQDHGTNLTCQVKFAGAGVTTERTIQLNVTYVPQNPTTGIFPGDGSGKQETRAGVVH

binding result	Binder
binds	MYT1239 (antibody, V domains shown, IgG; IMGN779 VH variant #27 (G66H)) VH: QVQLQQPGAEVVKPGASVKMSCKASGYTFTSYYIHWIKQTPGQGLEWVGVIYPGNDDISYNQKFQHKATLTADKSSTTAYMQLSSLTSEDSAVYYCAREVRLRYFDVWGQGTTVTVSS VL: EIVLTQSPGSLAVSPGERVTMSCKSSQSVFFSSSQKNYLAWYQQIPGQSPRLLIYWASTRESGVPDRFTGSGSGTDFTLTISSVQPEDLAIYYCHQYLSSRTFGQGTKLEIK
binds	MYT2624 (antibody, V domains shown, IgG; IMGN779 VL variant #8 (F31H)) VH: QVQLQQPGAEVVKPGASVKMSCKASGYTFTSYYIHWIKQTPGQGLEWVGVIYPGNDDISYNQKFQGKATLTADKSSTTAYMQLSSLTSEDSAVYYCAREVRLRYFDVWGQGTTVTVSS VL: EIVLTQSPGSLAVSPGERVTMSCKSSQSVFHSSSQKNYLAWYQQIPGQSPRLLIYWASTRESGVPDRFTGSGSGTDFTLTISSVQPEDLAIYYCHQYLSSRTFGQGTKLEIK
binds	MYT2620 (antibody, V domains shown, IgG; IMGN779 VL variant #4 (Q27H)) VH: QVQLQQPGAEVVKPGASVKMSCKASGYTFTSYYIHWIKQTPGQGLEWVGVIYPGNDDISYNQKFQGKATLTADKSSTTAYMQLSSLTSEDSAVYYCAREVRLRYFDVWGQGTTVTVSS VL: EIVLTQSPGSLAVSPGERVTMSCKSSHSVFFSSSQKNYLAWYQQIPGQSPRLLIYWASTRESGVPDRFTGSGSGTDFTLTISSVQPEDLAIYYCHQYLSSRTFGQGTKLEIK
binds	MYT2627 (antibody, V domains shown, IgG; IMGN779 VL variant #11 (S34H)) VH: QVQLQQPGAEVVKPGASVKMSCKASGYTFTSYYIHWIKQTPGQGLEWVGVIYPGNDDISYNQKFQGKATLTADKSSTTAYMQLSSLTSEDSAVYYCAREVRLRYFDVWGQGTTVTVSS VL: EIVLTQSPGSLAVSPGERVTMSCKSSQSVFFSSHQKNYLAWYQQIPGQSPRLLIYWASTRESGVPDRFTGSGSGTDFTLTISSVQPEDLAIYYCHQYLSSRTFGQGTKLEIK
binds	MYT2618 (antibody, V domains shown, IgG; IMGN779 VL variant #2 (S25H)) VH: QVQLQQPGAEVVKPGASVKMSCKASGYTFTSYYIHWIKQTPGQGLEWVGVIYPGNDDISYNQKFQGKATLTADKSSTTAYMQLSSLTSEDSAVYYCAREVRLRYFDVWGQGTTVTVSS VL: EIVLTQSPGSLAVSPGERVTMSCKHSQSVFFSSSQKNYLAWYQQIPGQSPRLLIYWASTRESGVPDRFTGSGSGTDFTLTISSVQPEDLAIYYCHQYLSSRTFGQGTKLEIK
binds	MYT1243 (antibody, V domains shown, IgG; IMGN779 VH variant #31 (V100H)) VH: QVQLQQPGAEVVKPGASVKMSCKASGYTFTSYYIHWIKQTPGQGLEWVGVIYPGNDDISYNQKFQGKATLTADKSSTTAYMQLSSLTSEDSAVYYCAREHRLRYFDVWGQGTTVTVSS VL: EIVLTQSPGSLAVSPGERVTMSCKSSQSVFFSSSQKNYLAWYQQIPGQSPRLLIYWASTRESGVPDRFTGSGSGTDFTLTISSVQPEDLAIYYCHQYLSSRTFGQGTKLEIK
binds	MYT2617 (antibody, V domains shown, IgG; IMGN779 VL variant #1 (K24H)) VH: QVQLQQPGAEVVKPGASVKMSCKASGYTFTSYYIHWIKQTPGQGLEWVGVIYPGNDDISYNQKFQGKATLTADKSSTTAYMQLSSLTSEDSAVYYCAREVRLRYFDVWGQGTTVTVSS VL: EIVLTQSPGSLAVSPGERVTMSCHSSQSVFFSSSQKNYLAWYQQIPGQSPRLLIYWASTRESGVPDRFTGSGSGTDFTLTISSVQPEDLAIYYCHQYLSSRTFGQGTKLEIK
binds	MYT2623 (antibody, V domains shown, IgG; IMGN779 VL variant #7 (F30H)) VH: QVQLQQPGAEVVKPGASVKMSCKASGYTFTSYYIHWIKQTPGQGLEWVGVIYPGNDDISYNQKFQGKATLTADKSSTTAYMQLSSLTSEDSAVYYCAREVRLRYFDVWGQGTTVTVSS VL: EIVLTQSPGSLAVSPGERVTMSCKSSQSVHFSSSQKNYLAWYQQIPGQSPRLLIYWASTRESGVPDRFTGSGSGTDFTLTISSVQPEDLAIYYCHQYLSSRTFGQGTKLEIK
binds	MYT1250 (antibody, V domains shown, IgG; IMGN779 VH variant #38 (V107H)) VH: QVQLQQPGAEVVKPGASVKMSCKASGYTFTSYYIHWIKQTPGQGLEWVGVIYPGNDDISYNQKFQGKATLTADKSSTTAYMQLSSLTSEDSAVYYCAREVRLRYFDHWGQGTTVTVSS VL: EIVLTQSPGSLAVSPGERVTMSCKSSQSVFFSSSQKNYLAWYQQIPGQSPRLLIYWASTRESGVPDRFTGSGSGTDFTLTISSVQPEDLAIYYCHQYLSSRTFGQGTKLEIK
binds	MYT1241 (antibody, V domains shown, IgG; IMGN779 VH variant #29 (R98H)) VH: QVQLQQPGAEVVKPGASVKMSCKASGYTFTSYYIHWIKQTPGQGLEWVGVIYPGNDDISYNQKFQGKATLTADKSSTTAYMQLSSLTSEDSAVYYCAHEVRLRYFDVWGQGTTVTVSS VL: EIVLTQSPGSLAVSPGERVTMSCKSSQSVFFSSSQKNYLAWYQQIPGQSPRLLIYWASTRESGVPDRFTGSGSGTDFTLTISSVQPEDLAIYYCHQYLSSRTFGQGTKLEIK
binds	MYT1248 (antibody, V domains shown, IgG; IMGN779 VH variant #36 (F105H)) VH: QVQLQQPGAEVVKPGASVKMSCKASGYTFTSYYIHWIKQTPGQGLEWVGVIYPGNDDISYNQKFQGKATLTADKSSTTAYMQLSSLTSEDSAVYYCAREVRLRYHDVWGQGTTVTVSS VL: EIVLTQSPGSLAVSPGERVTMSCKSSQSVFFSSSQKNYLAWYQQIPGQSPRLLIYWASTRESGVPDRFTGSGSGTDFTLTISSVQPEDLAIYYCHQYLSSRTFGQGTKLEIK
binds	MYT1244 (antibody, V domains shown, IgG; IMGN779 VH variant #32 (R101H)) VH: QVQLQQPGAEVVKPGASVKMSCKASGYTFTSYYIHWIKQTPGQGLEWVGVIYPGNDDISYNQKFQGKATLTADKSSTTAYMQLSSLTSEDSAVYYCAREVHLRYFDVWGQGTTVTVSS VL: EIVLTQSPGSLAVSPGERVTMSCKSSQSVFFSSSQKNYLAWYQQIPGQSPRLLIYWASTRESGVPDRFTGSGSGTDFTLTISSVQPEDLAIYYCHQYLSSRTFGQGTKLEIK
binds	MYT2621 (antibody, V domains shown, IgG; IMGN779 VL variant #5 (S28H)) VH: QVQLQQPGAEVVKPGASVKMSCKASGYTFTSYYIHWIKQTPGQGLEWVGVIYPGNDDISYNQKFQGKATLTADKSSTTAYMQLSSLTSEDSAVYYCAREVRLRYFDVWGQGTTVTVSS VL: EIVLTQSPGSLAVSPGERVTMSCKSSQHVFFSSSQKNYLAWYQQIPGQSPRLLIYWASTRESGVPDRFTGSGSGTDFTLTISSVQPEDLAIYYCHQYLSSRTFGQGTKLEIK
binds	MYT2626 (antibody, V domains shown, IgG; IMGN779 VL variant #10 (S33H)) VH: QVQLQQPGAEVVKPGASVKMSCKASGYTFTSYYIHWIKQTPGQGLEWVGVIYPGNDDISYNQKFQGKATLTADKSSTTAYMQLSSLTSEDSAVYYCAREVRLRYFDVWGQGTTVTVSS VL: EIVLTQSPGSLAVSPGERVTMSCKSSQSVFFSHSQKNYLAWYQQIPGQSPRLLIYWASTRESGVPDRFTGSGSGTDFTLTISSVQPEDLAIYYCHQYLSSRTFGQGTKLEIK
binds	MYT1246 (antibody, V domains shown, IgG; IMGN779 VH variant #34 (R103H)) VH: QVQLQQPGAEVVKPGASVKMSCKASGYTFTSYYIHWIKQTPGQGLEWVGVIYPGNDDISYNQKFQGKATLTADKSSTTAYMQLSSLTSEDSAVYYCAREVRLHYFDVWGQGTTVTVSS VL: EIVLTQSPGSLAVSPGERVTMSCKSSQSVFFSSSQKNYLAWYQQIPGQSPRLLIYWASTRESGVPDRFTGSGSGTDFTLTISSVQPEDLAIYYCHQYLSSRTFGQGTKLEIK
binds	MYT1245 (antibody, V domains shown, IgG; IMGN779 VH variant #33 (L102H)) VH: QVQLQQPGAEVVKPGASVKMSCKASGYTFTSYYIHWIKQTPGQGLEWVGVIYPGNDDISYNQKFQGKATLTADKSSTTAYMQLSSLTSEDSAVYYCAREVRHRYFDVWGQGTTVTVSS VL: EIVLTQSPGSLAVSPGERVTMSCKSSQSVFFSSSQKNYLAWYQQIPGQSPRLLIYWASTRESGVPDRFTGSGSGTDFTLTISSVQPEDLAIYYCHQYLSSRTFGQGTKLEIK
binds	MYT2619 (antibody, V domains shown, IgG; IMGN779 VL variant #3 (S26H)) VH: QVQLQQPGAEVVKPGASVKMSCKASGYTFTSYYIHWIKQTPGQGLEWVGVIYPGNDDISYNQKFQGKATLTADKSSTTAYMQLSSLTSEDSAVYYCAREVRLRYFDVWGQGTTVTVSS VL: EIVLTQSPGSLAVSPGERVTMSCKSHQSVFFSSSQKNYLAWYQQIPGQSPRLLIYWASTRESGVPDRFTGSGSGTDFTLTISSVQPEDLAIYYCHQYLSSRTFGQGTKLEIK
binds	MYT2628 (antibody, V domains shown, IgG; IMGN779 VL variant #12 (Q35H)) VH: QVQLQQPGAEVVKPGASVKMSCKASGYTFTSYYIHWIKQTPGQGLEWVGVIYPGNDDISYNQKFQGKATLTADKSSTTAYMQLSSLTSEDSAVYYCAREVRLRYFDVWGQGTTVTVSS VL: EIVLTQSPGSLAVSPGERVTMSCKSSQSVFFSSSHKNYLAWYQQIPGQSPRLLIYWASTRESGVPDRFTGSGSGTDFTLTISSVQPEDLAIYYCHQYLSSRTFGQGTKLEIK
binds	MYT2625 (antibody, V domains shown, IgG; IMGN779 VL variant #9 (S32H)) VH: QVQLQQPGAEVVKPGASVKMSCKASGYTFTSYYIHWIKQTPGQGLEWVGVIYPGNDDISYNQKFQGKATLTADKSSTTAYMQLSSLTSEDSAVYYCAREVRLRYFDVWGQGTTVTVSS VL: EIVLTQSPGSLAVSPGERVTMSCKSSQSVFFHSSQKNYLAWYQQIPGQSPRLLIYWASTRESGVPDRFTGSGSGTDFTLTISSVQPEDLAIYYCHQYLSSRTFGQGTKLEIK
binds	MYT1247 (antibody, V domains shown, IgG; IMGN779 VH variant #35 (Y104H)) VH: QVQLQQPGAEVVKPGASVKMSCKASGYTFTSYYIHWIKQTPGQGLEWVGVIYPGNDDISYNQKFQGKATLTADKSSTTAYMQLSSLTSEDSAVYYCAREVRLRHFDVWGQGTTVTVSS VL: EIVLTQSPGSLAVSPGERVTMSCKSSQSVFFSSSQKNYLAWYQQIPGQSPRLLIYWASTRESGVPDRFTGSGSGTDFTLTISSVQPEDLAIYYCHQYLSSRTFGQGTKLEIK
binds	MYT2622 (antibody, V domains shown, IgG; IMGN779 VL variant #6 (V29H)) VH: QVQLQQPGAEVVKPGASVKMSCKASGYTFTSYYIHWIKQTPGQGLEWVGVIYPGNDDISYNQKFQGKATLTADKSSTTAYMQLSSLTSEDSAVYYCAREVRLRYFDVWGQGTTVTVSS VL: EIVLTQSPGSLAVSPGERVTMSCKSSQSHFFSSSQKNYLAWYQQIPGQSPRLLIYWASTRESGVPDRFTGSGSGTDFTLTISSVQPEDLAIYYCHQYLSSRTFGQGTKLEIK
